Target: KIF5A ΔExon27-GFP (human) (UniProt Q12840)
Assay: single-molecule TIRF microscopy, fluorescence intensity of moving spots

- percent of moving spots that are a single dimer: 25%
Substance: KIF5A ΔExon27-GFP (from UniProt Q12840 1-998) (natural protein)

— article doi:10.1101/2022.03.05.483071
